Literature values as cited in patent publication US20220241413A1, “COMBINATION THERAPIES USING CD-38 ANTIBODIES” (Takeda Pharmaceutical Company Limited, priority 2019, published 2022).
Read-outs that look alike come from different tables or passages of the source.

Columns and labels:
[1] = cited from earlier work
RBCs and platelets = details: cited from earlier work
[2] = cited from earlier work; remark: listed apart in the source
NK cells = details: IV, patients with RRMM, doses up to 24 mg/kg; cited from earlier work
[3] = IV, patients with RRMM, doses up to 24 mg/kg; cited from earlier work
[4] = SC formulation with hyaluronidase

Which results are given for “MOR202: anti-CD38 IgG1 antibody, used clinically via IV infusion”?
Grade ≥3 TEAE: hypertension ([1]; RRMM, IV infusion): 9%; Grade ≥3 TEAE: leukopenia ([1]; RRMM, IV infusion): 11%; Grade ≥3 TEAE: lymphopenia ([1]; RRMM, IV infusion): 18%; TEAE at any grade: anemia ([1]; RRMM, IV infusion): 34%; TEAE at any grade: fatigue ([1]; RRMM, IV infusion): 32%; TEAE at any grade: infusion-related reactions (IRRs) ([1]; RRMM, IV infusion): 30%; TEAE at any grade: leukopenia ([1]; RRMM, IV infusion): 30%; TEAE at any grade: lymphopenia ([1]; RRMM, IV infusion): 25%; TEAE at any grade: nausea ([1]; RRMM, IV infusion): 25%; patients with Grade ≥3 TEAEs ([1]; RRMM, IV infusion): 64%; infections ([1]; in vivo, iv): 59%

Which “binding to RBCs and platelets” value (RBCs and platelets) does the source give for “daratumumab: first approved anti-CD38 drug, anti-CD38 IgG1 antibody” here?
Its value is “strongly bind”.

What about the “incidence of IRR, Grade 3 or higher” value ([2]; IV administration) of the same substance?
Its value is ≤ 9%.

And the “incidence of IRR, all grades” value ([2]; IV administration)?
The value was ≥ 50%.

What about the “incidence of IRR, Grade 3 or higher” value [2, 4] of the same substance?
The value was 8%.

And the “incidence of IRR, all grades” value [2, 4]?
The value was 16%.

And the “Grade 3 and 4 TEAE: hypertension” value ([2]; SC)?
Its value is 8%.

What about the “Grade 3 and 4 TEAE: lymphopenia” value ([2]; SC) of the same substance?
Its value is 20%.

And the “Grade 3 and 4 TEAE: neutropenia” value ([2]; SC)?
The value was 8%.

What about the “Grade 3 and 4 TEAE: thrombocytopenia” value ([2]; SC) of the same substance?
Its value is 8%.

What about the “injection site reactions (induration, erythema, discoloration, hematomas)” value ([2]; SC) of the same substance?
The value was 16.7 % of patients.

What about the “persistence of positive indirect Coombs test results after the last infusion” value ([2]; binding to CD38 on RBCs) of the same substance?
Its value is “up to 6 months”.

What about the “patients with severe and serious IRRs, including anaphylactic reactions” value ([2]; human, in vivo) of the same substance?
The value was “approximately half”.

And the “comparable depletion of NK cells (to >90% with AB79)” value (NK cells)?
The value was “not achieved”.

What about the “mean Cmax” value [3] of the same substance?
Its value is > 500 µg/mL.

Which “binding to RBCs and platelets” value (RBCs and platelets) does the source give for isatuximab: anti-CD38 IgG1 antibody here?
Its value is “strongly bind”.
